Measurements as given in patent US20250092134A1 (Janssen / Centocor, published 2025).

B1: 20A9A9 (antibody, V domains shown)
VH: EVQLQESGPGLVQPSQSLSITCTVSGFSLTSYGVHWVRQSPGKGLEWLGIIWSAGGTDYNAAFISRLSISKDNSKSQIFFKLNSLHADDTAIYFCARGSFYDYGRLDYWGQGTTLTVSS
VL: DIVMTQSHRFMSTSVGDRVSITCKASQDVSTAVAWYQQKPGQSPKLLIYSSSYRYTGVPDRFTGSGSGTDFTFTISSVQAEDLAVYYCQQHYGTPYTFGGGTKLEIQ
B2: 23A9B10 (antibody, V domains shown)
VH: EVQLQESGPGLVKPSQSLSLTCSVTGYSITSGYYWNWIRQFLGNKLEWMGYITYDGSNNYNPSLKDRISITRDTSKNQFFLNLNSVTTDDTATYYCARGGGYVPVWGTGTTVTVSS
VL: IQMTQSPAFLSVSPGERVSFSCRASQNIGTSIHWYQQRTNGSPRLLIKYASESISGIPSRFSGSGSGTDFTLSINSVESEDFADYYCHQSHNWPTTFGAGTKLELK
B3: 20C12A3 (antibody, V domains shown)
VH: EVQLQESGAELVRPGTSVKMSCKASGYTFTHYWIDWTKQRPGHGLEWIGNIYPGGGYTNYNENFKGKATLTADKSSSTVFMQFSSLTSDDSAIYYCTRKGYYYGSDWYFDVWGTGTTVTVSS
VL: STSVGDRVSITCKASQDVSTAVAWYHQKPGQSPKLLIYSASYRYTGVPDRFTGSGSGTDFTFTISSVQAEDLAVYYCQQHYTTPYTFGGGTKLEMK

molecular target: Vβ17 (on cells expressing Vβ17); assay: cell-based or functional assay
Sequence (A0A075B6N1 22-114): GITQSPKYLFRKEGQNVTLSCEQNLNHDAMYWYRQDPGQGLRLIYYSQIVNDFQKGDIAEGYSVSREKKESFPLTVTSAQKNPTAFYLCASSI

Binder | Cell Internalization (EC50) [pM]
B1 | 290
B2 | 15400
B3 | 60
